Reference: patent publication US20090149339A1
Ends that are not written are not given here. * marks the point of attachment. Biotin = O=C1N[C@H]2[C@H](CS[C@H]2CCCCC(=O)*)N1

Tests used:
[1] = molecular target: GST-DLG1 PDZ domain fusion protein (human homolog of Drosophila discs large protein AA275-477; PDZ domains 1-2 of 3) (human) [GST: P08515]; experiment: G assay, peptide titrated on immobilized GST-PDZ, saturation fit (apparent affinity)
[2] = molecular target: GST polypeptide alone (not a fusion protein) [GST: P08515]; experiment: G assay, immobilized GST alone (background control)
Sequence of GST polypeptide alone (not a fusion protein) [GST: P08515] (P08515 whole entry, the tested form may be a part): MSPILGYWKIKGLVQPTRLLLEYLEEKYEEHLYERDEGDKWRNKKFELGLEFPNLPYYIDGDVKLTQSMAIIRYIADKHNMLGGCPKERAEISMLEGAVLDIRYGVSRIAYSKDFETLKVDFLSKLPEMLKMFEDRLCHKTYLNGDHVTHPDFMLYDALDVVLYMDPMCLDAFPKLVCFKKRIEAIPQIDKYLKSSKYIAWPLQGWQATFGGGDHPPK

[3] = molecular target: GST-PSD95 PDZ domain fusion protein (human post-synaptic density protein 95 AA387-724; PDZ domains 1-3 of 3) (human) [GST: P08515]; experiment: G assay, peptide titrated on immobilized GST-PDZ, saturation fit (apparent affinity)
Sequence of GST-PSD95 PDZ domain fusion protein (human post-synaptic density protein 95 AA387-724; PDZ domains 1-3 of 3) (human) [GST: P08515] (P08515 1-218, tags or fused parts left off): as the sequence (P08515 whole entry, the tested form may be a part) above

[4] = molecular target: GST-NeDLG PDZ domain fusion protein (presynaptic protein sao102, neuroendocrine-dlg; PDZ domains 1-2 of 3) [GST: P08515]; experiment: as above
Sequence of GST-NeDLG PDZ domain fusion protein (presynaptic protein sao102, neuroendocrine-dlg; PDZ domains 1-2 of 3) [GST: P08515] (P08515 1-218, tags or fused parts left off): as the sequence (P08515 whole entry, the tested form may be a part) above

Sequence of GST-DLG1 PDZ domain fusion protein (human homolog of Drosophila discs large protein AA275-477; PDZ domains 1-2 of 3) (human) [GST: P08515] (P08515 1-218, tags or fused parts left off): as the sequence (P08515 whole entry, the tested form may be a part) above

Binder	Kd [1] [µM]	OD (binding to GST alone) [2] [OD units]	Kd [3] [µM]	Kd [4] [µM]
Biotin-KDITSDSENSNFRNEIQSLV [CD95 (Apo-1/Fas) C-terminal PL peptide AA13L, biotinylated]	54			
ISGTPTSTMVHGMTSSSSVV (not fully specified) [CLASP-2 C-terminal PL peptide AA2L (C-terminal 20 amino acids), biotinylated]		< 0.2	45	7.5
